In article PMC3432076:

Target: His-ΔPACC (Neurospora crassa) (UniProt Q7RVQ8)
Experiment: EMSA
Details: EMSA: 25 mM HEPES-KOH pH 7.9, 20 mM KCl, 10% glycerol, 1 mM DTT, 0.2 mM EDTA, 0.5 mM PMSF, 12.5 mM benzamidine, 5 µg/mL antipain and pepstatin A, 2 µg …

Chain of His-ΔPACC (Neurospora crassa) (Q7RVQ8 1-213, stated change not applied): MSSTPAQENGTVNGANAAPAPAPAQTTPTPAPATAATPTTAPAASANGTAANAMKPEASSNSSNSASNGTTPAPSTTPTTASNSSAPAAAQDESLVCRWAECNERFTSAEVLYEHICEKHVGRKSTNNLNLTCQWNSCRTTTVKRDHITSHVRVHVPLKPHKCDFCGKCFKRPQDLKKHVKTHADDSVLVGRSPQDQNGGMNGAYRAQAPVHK

| Sequence | binding |
| --- | --- |
| GACCCAACAGCCCAACTTGTGCTTGTCTTGTTCTTTTCCGGCCTCGCTAGAGGTACTATTTCTTCGCTTCTTGTCTGACTTTTTTCAATAGCCGTCTTTGGGCCAGCTTGGCCGTGAGATCGGGGCCGCATGGGAGTATTCGTTGC (double strand) [pacC probe (146 bp gsn promoter)] | binds |
| GACCCAACAGCCCAACTTGTGCTTGTCTTGTTCTTTTCCGGCCTCGCTAGAGGTACTATTTCTTCGCTTCTTGTCTGACTTTTTTCAATAGCCGTCTTTGGGCCAGAAATTACGTGAGATCGGGGCCGCATGGGAGTATTCGTTGC (double strand) [mpacC probe (CTTGGC to AAATTA)] | binds more weakly |
